The source of these data is US20220112276A1 (Janssen / Centocor, published 2022).

Test [1] has as its target T1, cynomolgus monkey pIgR extracellular domain (cynomolgus monkey, UniProt A0A2K5WMU9 19-638).
T1 construct: extracellular domain
Description: SPR, VHH captured by anti-Fc, ECD analyte. The method, boiled down: (§1)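 Anti-human Fc surface captured VHH at 0.5 ug/ml (~200-300 RU); running buffer HBSP with 100 ug/ml BSA, 30 μL/min. Single-cycle kinetics with ECD injected low to high from 30 nM in 3-fold dilutions, dissociation 30 min. Double-referenced data globally fit to 1:1 Langmuir model for kon, koff, KD.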

Test [2] concerns the target T2, mouse pIgR extracellular domain (ECD) (mouse, UniProt O70570 19-645).
T2 construct: Bought from R&D Systems (Cat 2800-PG-050); also called mpIgR ECD
T2 sequence: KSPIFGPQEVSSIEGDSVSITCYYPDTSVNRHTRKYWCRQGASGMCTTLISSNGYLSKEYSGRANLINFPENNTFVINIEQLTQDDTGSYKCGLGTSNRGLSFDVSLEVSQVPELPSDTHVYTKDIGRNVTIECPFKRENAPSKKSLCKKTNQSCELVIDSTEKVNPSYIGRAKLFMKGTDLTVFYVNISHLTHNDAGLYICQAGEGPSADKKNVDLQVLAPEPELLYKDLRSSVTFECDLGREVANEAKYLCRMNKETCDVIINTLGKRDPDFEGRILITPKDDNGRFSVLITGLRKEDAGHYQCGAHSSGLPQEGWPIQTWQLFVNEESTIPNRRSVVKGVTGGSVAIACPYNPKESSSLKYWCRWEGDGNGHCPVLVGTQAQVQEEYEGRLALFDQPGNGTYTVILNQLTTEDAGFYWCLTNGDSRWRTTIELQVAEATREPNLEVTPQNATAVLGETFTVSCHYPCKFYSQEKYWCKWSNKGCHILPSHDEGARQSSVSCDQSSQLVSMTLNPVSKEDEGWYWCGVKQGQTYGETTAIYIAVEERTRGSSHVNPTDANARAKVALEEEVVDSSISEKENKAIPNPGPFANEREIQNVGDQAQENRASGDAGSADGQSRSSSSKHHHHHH
Description: SPR, VHH captured by anti-Fc, ECD analyte. The essentials: as §1
Background: Surface plasmon resonance follows binding to a sensor surface in real time, without labels.

The target in test [3] is T3, human pIgR extracellular domain (ECD) (human, UniProt P01833 19-638).
T3 construct: Bought from R&D Systems (Cat 2717-PG-050); also called hpIgR ECD
Description: SPR.

The target of test [4] is T3, human pIgR extracellular domain (ECD). The test is described as follows: SPR, VHH captured by anti-Fc, ECD analyte. The method, boiled down:
as §1

For test [5], the target named is T4, rat pIgR extracellular domain (rat, UniProt P15083 19-643).
T4 construct: extracellular domain
T4 sequence (looked up): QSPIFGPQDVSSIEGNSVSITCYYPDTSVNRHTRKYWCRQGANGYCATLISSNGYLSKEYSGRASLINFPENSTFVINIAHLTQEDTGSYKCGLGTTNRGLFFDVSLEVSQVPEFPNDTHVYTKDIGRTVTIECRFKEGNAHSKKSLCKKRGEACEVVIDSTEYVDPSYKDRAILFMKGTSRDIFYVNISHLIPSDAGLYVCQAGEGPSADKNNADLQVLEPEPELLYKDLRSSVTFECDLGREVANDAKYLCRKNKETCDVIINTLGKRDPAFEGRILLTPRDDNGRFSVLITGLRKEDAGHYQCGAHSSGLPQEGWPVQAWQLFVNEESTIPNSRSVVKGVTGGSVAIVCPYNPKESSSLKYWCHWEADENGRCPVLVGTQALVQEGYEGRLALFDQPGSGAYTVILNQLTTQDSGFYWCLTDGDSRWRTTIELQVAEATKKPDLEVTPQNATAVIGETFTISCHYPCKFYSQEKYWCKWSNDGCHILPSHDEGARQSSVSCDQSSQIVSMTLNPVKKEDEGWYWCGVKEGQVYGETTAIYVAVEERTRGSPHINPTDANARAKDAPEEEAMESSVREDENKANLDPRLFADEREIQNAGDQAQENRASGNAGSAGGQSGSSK
Description: SPR, VHH captured by anti-Fc, ECD analyte. The essentials: as §1

T3 sequence (P01833 other isoform, or with tags, fused parts or gaps): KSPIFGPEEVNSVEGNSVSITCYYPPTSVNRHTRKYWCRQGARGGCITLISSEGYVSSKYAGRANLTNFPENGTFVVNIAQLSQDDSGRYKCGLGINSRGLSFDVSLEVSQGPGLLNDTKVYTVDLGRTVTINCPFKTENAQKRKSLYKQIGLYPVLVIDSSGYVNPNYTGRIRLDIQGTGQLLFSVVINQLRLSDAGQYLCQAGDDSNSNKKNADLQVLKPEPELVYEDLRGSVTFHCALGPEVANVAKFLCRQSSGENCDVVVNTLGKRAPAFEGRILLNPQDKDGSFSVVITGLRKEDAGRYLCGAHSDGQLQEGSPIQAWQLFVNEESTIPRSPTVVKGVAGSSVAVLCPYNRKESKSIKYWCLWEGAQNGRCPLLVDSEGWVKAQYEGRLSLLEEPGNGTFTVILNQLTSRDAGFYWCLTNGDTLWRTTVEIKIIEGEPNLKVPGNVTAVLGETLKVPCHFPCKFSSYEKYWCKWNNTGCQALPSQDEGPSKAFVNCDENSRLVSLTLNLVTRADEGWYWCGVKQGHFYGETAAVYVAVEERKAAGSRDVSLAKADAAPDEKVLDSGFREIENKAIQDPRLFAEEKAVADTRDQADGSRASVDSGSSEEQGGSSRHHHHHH
T1 sequence (A0A2K5WMU9 entry or part of it): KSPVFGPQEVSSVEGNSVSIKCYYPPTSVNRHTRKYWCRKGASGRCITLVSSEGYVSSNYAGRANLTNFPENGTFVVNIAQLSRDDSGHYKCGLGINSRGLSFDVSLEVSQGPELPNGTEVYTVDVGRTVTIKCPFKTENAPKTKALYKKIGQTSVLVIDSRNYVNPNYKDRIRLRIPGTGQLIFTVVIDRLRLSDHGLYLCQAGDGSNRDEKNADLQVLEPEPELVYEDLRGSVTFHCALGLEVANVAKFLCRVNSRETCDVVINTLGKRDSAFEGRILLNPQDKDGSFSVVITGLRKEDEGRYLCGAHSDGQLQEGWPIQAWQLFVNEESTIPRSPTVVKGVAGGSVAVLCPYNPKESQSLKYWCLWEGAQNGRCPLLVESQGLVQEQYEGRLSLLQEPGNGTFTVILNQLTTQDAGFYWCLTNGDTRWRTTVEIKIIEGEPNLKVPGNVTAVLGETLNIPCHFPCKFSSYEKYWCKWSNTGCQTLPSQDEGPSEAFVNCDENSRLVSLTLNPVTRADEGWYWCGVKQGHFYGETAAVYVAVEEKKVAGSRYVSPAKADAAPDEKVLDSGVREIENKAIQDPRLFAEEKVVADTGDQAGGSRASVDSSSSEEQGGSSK

B1: 01F05R2LS VHH Mono-Fc (Fc fusion)
chain: QVQLVESGGGLVQAGGSLRLSCAASGSIFAINGMGWYRQAPGKQRELVAVITRGGSTNYADSVKGRFTISRDNAKNTVSLQMNSLKPEDTAVYYCAATGVLAGWAAGDGMDYWGKGTLVTVSSSPAPELLGGPSVFLFPPKPKDTLMISRTPEVTCVVVDVSHEDPEVKFNWYVDGVEVHNAKTKPREEQYNSTYRVVSVLTVLHQDWLNGKEYKCKVSNKALPAPIEKTISKAKGQPREPQVYTKPPSREEMTKNQVSLSCLVKGFYPSDIAVEWESNGQPENNYKTTVPVLDSDGSFRLASYLTVDKSRWQQGNVFSCSVMHEALHNHYTQKSLSLSPGK
As a reminder, the Kd is a measure of binding affinity in units of concentration. As for B1, the Kd in test [1] stood at 2.72 nM; in test [2], 3.98 nM. The binding result in test [3] was “no binding (tested: 30 nM)”.

B2: 01A04R3LS VHH Mono-Fc (Fc fusion)
chain: QVQLVESGGGSVQPGGSLRLSCAASGIDVSISTIMWYRQPPGRQRELVADVIPSGRSTTYTESVKGRFTVTRDNAKNTVYLQMSGLKPEDTAVYYCNAFVRRENYWGQGTQVTVSSSPAPELLGGPSVFLFPPKPKDTLMISRTPEVTCVVVDVSHEDPEVKFNWYVDGVEVHNAKTKPREEQYNSTYRVVSVLTVLHQDWLNGKEYKCKVSNKALPAPIEKTISKAKGQPREPQVYTKPPSREEMTKNQVSLSCLVKGFYPSDIAVEWESNGQPENNYKTTVPVLDSDGSFRLASYLTVDKSRWQQGNVFSCSVMHEALHNHYTQKSLSLSPGK
Take B2: binding in test [2] was put at a Kd of 3.29 nM. For the same molecule, the binding result in test [3] was “no binding (tested: 30 nM)”.

B3: 01C01R2L VHH Mono-Fc (Fc fusion)
chain: QVQLVESGGGLVQAGGSLRLSCAASGRTLRSYIVGWFRQAPGKEREFVAAVTWSDGRRVTADPVKGRFTISRDNAKNTVYLQMDSLKPEDAAVYYCAVSRGGAYEYSRAYEYWGQGTLVTVSSSPAPELLGGPSVFLFPPKPKDTLMISRTPEVTCVVVDVSHEDPEVKFNWYVDGVEVHNAKTKPREEQYNSTYRVVSVLTVLHQDWLNGKEYKCKVSNKALPAPIEKTISKAKGQPREPQVYTKPPSREEMTKNQVSLSCLVKGFYPSDIAVEWESNGQPENNYKTTVPVLDSDGSFRLASYLTVDKSRWQQGNVFSCSVMHEALHNHYTQKSLSLSPGK
In test [2], B3 displayed a Kd of 6.55 nM. Besides, the binding result in test [3] is given as “no binding (tested: 30 nM)”.

B4: 01C03R2L VHH Mono-Fc (Fc fusion)
chain: EVQLVESGGGLVQAGGSLRLSCAASGRTLRSYIVGWFRQAPGKEREFVAAVTWSDGRRVTADPVKGRFTISRDNAKNTVYLQMDSLKPEDAAVYYCAVSHGGAYVESRAYEYWGQGTQVTVSSSPAPELLGGPSVFLFPPKPKDTLMISRTPEVTCVVVDVSHEDPEVKFNWYVDGVEVHNAKTKPREEQYNSTYRVVSVLTVLHQDWLNGKEYKCKVSNKALPAPIEKTISKAKGQPREPQVYTKPPSREEMTKNQVSLSCLVKGFYPSDIAVEWESNGQPENNYKTTVPVLDSDGSFRLASYLTVDKSRWQQGNVFSCSVMHEALHNHYTQKSLSLSPGK
In test [2], B4 showed a Kd of 3.67 nM. Moreover, the binding result in test [3] was “no binding (tested: 30 nM)”.

B5: 01B07R2L VHH Mono-Fc (Fc fusion)
chain: EVQLVESGGGLVQAGGSLRLSCAASGRTFSSDAVGWFRQAPGKEREFVAHIHWSGDFTTYYYYGDFVKGRFTISRGTAKNTVYLQMNSLKPEDTAVYYCAAPKGAIGDPRSTREYDYWGQGTLVTVSSSPAPELLGGPSVFLFPPKPKDTLMISRTPEVTCVVVDVSHEDPEVKFNWYVDGVEVHNAKTKPREEQYNSTYRVVSVLTVLHQDWLNGKEYKCKVSNKALPAPIEKTISKAKGQPREPQVYTKPPSREEMTKNQVSLSCLVKGFYPSDIAVEWESNGQPENNYKTTVPVLDSDGSFRLASYLTVDKSRWQQGNVFSCSVMHEALHNHYTQKSLSLSPGK
Regarding B5, the Kd came to 2.11 nM in test [1], 11.4 nM in test [4], 2.33 nM in test [5] and 4.46 nM in test [2].

B6: 01E05R2 VHH Mono-Fc (Fc fusion)
chain: QVQLVESGGGLVQAGGSLRLSCAASGRAFSSGRMGWFRQAPGKEREFVAAISWSGHTTYKYYADSVKGRFTISRENAKNTVSLQMNSLKPEDTAVYYCAARQSLVAGGDPRGQSEYDYWGQGTLVTVSSSPAPELLGGPSVFLFPPKPKDTLMISRTPEVTCVVVDVSHEDPEVKFNWYVDGVEVHNAKTKPREEQYNSTYRVVSVLTVLHQDWLNGKEYKCKVSNKALPAPIEKTISKAKGQPREPQVYTKPPSREEMTKNQVSLSCLVKGFYPSDIAVEWESNGQPENNYKTTVPVLDSDGSFRLASYLTVDKSRWQQGNVFSCSVMHEALHNHYTQKSLSLSPGK
Take B6: the Kd in test [1] came to 36.2 nM; in test [4] it was 34.2 nM; in test [5], 16.1 nM; in test [2], 17.3 nM.

B7: 01A02R3 VHH Mono-Fc (Fc fusion)
chain: EVQLVESGGGLVQSGGSLRLSCAASGRTFDQFTVGWFRQAPGKEREFVTAIRWSGSTTYRYYADSVKGRFTISRDNARNTVDLQMNSLKPEDSAVYYCAGQMSQWSDPRGDDYDSWGQGTLVTVSSSPAPELLGGPSVFLFPPKPKDTLMISRTPEVTCVVVDVSHEDPEVKFNWYVDGVEVHNAKTKPREEQYNSTYRVVSVLTVLHQDWLNGKEYKCKVSNKALPAPIEKTISKAKGQPREPQVYTKPPSREEMTKNQVSLSCLVKGFYPSDIAVEWESNGQPENNYKTTVPVLDSDGSFRLASYLTVDKSRWQQGNVFSCSVMHEALHNHYTQKSLSLSPGK
Regarding B7, the Kd in test [1] came out at 4.97 nM; in test [4], 17.9 nM; in test [5], 2.78 nM; in test [2], 7.18 nM.

B8: 02H04R3 VHH Mono-Fc (Fc fusion)
chain: EVQLVESGGGLVQPGGRLRLSCAASGSIFSIRDMGWYRQAPGKQRELVAIFARGGSTHYADSVKGRFTISRDNAKNTVYLQMNSLEPEDTAAYYCNAEVATMIQPGFRDYWGQGTQVTVSSSPAPELLGGPSVFLFPPKPKDTLMISRTPEVTCVVVDVSHEDPEVKFNWYVDGVEVHNAKTKPREEQYNSTYRVVSVLTVLHQDWLNGKEYKCKVSNKALPAPIEKTISKAKGQPREPQVYTKPPSREEMTKNQVSLSCLVKGFYPSDIAVEWESNGQPENNYKTTVPVLDSDGSFRLASYLTVDKSRWQQGNVFSCSVMHEALHNHYTQKSLSLSPGK
Take B8: the Kd turned out to be 25.4 nM in test [5] and 46.6 nM in test [2]. In addition, in test [3], the binding result is “no binding (tested: 30 nM)”.

B9: 01A03R3L VHH Mono-Fc (Fc fusion)
chain: EVQLVESGGGLVQPGGQLRLSCAASGSIASVRDMAWYRQAPGKQRGLVAIFARGGTTHYADSVKGRFTISRDNAKNTVYLQMNSLEPEDTAAYYCNAEVATMFQPGFRDYWGRGTLVTVSSSPAPELLGGPSVFLFPPKPKDTLMISRTPEVTCVVVDVSHEDPEVKFNWYVDGVEVHNAKTKPREEQYNSTYRVVSVLTVLHQDWLNGKEYKCKVSNKALPAPIEKTISKAKGQPREPQVYTKPPSREEMTKNQVSLSCLVKGFYPSDIAVEWESNGQPENNYKTTVPVLDSDGSFRLASYLTVDKSRWQQGNVFSCSVMHEALHNHYTQKSLSLSPGK
As for B9, the figures for the dissociation constant (Kd) in test [5] and in test [2] were 2.91 nM and 6.06 nM, respectively. For the same molecule, the binding result in test [3] is “no binding (tested: 30 nM)”.

B10: 01G05R2LS VHH Mono-Fc (Fc fusion)
chain: QVQLVESGGGLVQAGDSLALSCAGSGDTFSNYAMGWFRQAPGKEREFVADISWYSANIGYADSVKGRFTISRDNAKNMVTLRMNSLKPEDTAVYYCAADRNHWPVKGDYWGQGTQVTVSSSPAPELLGGPSVFLFPPKPKDTLMISRTPEVTCVVVDVSHEDPEVKFNWYVDGVEVHNAKTKPREEQYNSTYRVVSVLTVLHQDWLNGKEYKCKVSNKALPAPIEKTISKAKGQPREPQVYTKPPSREEMTKNQVSLSCLVKGFYPSDIAVEWESNGQPENNYKTTVPVLDSDGSFRLASYLTVDKSRWQQGNVFSCSVMHEALHNHYTQKSLSLSPGK
In the case of B10, the Kd in test [2] was found to be 19.8 nM. In test [3], the binding result is reported as “no binding (tested: 30 nM)”.
